Experimental data: patent publication US20110052582A1 (Hoffmann-La Roche, published 2011)

T1: Soluble CDCP1 extracellular domain (CDCP1-ECD) (SEQ ID NO:30) fused to Streptavidin Binding Protein (SBP) (human, UniProt Q9H5V8 30-663)
T1 construct: also called SBP-CDCP1-ECD
T1 sequence: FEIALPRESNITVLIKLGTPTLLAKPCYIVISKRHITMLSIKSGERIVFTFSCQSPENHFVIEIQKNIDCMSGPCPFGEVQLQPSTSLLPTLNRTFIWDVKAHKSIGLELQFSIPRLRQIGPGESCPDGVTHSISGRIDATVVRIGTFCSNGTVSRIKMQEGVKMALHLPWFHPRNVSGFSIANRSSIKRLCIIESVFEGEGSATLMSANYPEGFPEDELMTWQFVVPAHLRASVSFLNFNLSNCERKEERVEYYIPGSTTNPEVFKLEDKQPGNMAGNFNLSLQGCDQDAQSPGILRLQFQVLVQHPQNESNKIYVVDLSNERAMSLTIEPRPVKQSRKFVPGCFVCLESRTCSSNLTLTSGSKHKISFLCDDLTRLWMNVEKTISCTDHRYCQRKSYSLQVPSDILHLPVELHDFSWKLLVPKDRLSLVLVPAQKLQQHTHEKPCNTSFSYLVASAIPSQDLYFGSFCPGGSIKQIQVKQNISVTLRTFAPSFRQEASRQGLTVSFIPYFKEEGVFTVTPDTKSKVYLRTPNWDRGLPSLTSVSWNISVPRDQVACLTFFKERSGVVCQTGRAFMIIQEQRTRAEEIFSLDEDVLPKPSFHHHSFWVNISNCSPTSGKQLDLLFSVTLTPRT


The binders below were run against T1, Soluble CDCP1 extracellular domain … (assay: ELISA on captured SBP-CDCP1-ECD, ratio relative to chimeric CUB4 (chHC4)).
Description: Soluble CDCP1 extracellular domain (CDCP1-ECD) (SEQ ID NO:30) fused to Streptavidin Binding Protein (SBP) was captured on a sreptavidine plate. To define optimal binding of the antibody to SBP-CDCP1-ECD, 384-well polystyrene plates (NUNC, streptavidin-coated) delivered by MicroCoat, Bernried, Germany (ID-No. 1734776-001) have been coated with pure and stepwise diluted HEK293 supernatant (in BSA/IMDM buffer: 100 mg/ml BSA Fraction V, Roche 10735078001, dissolved in Iscove's Modified Dulbeccos Medium). Using a calibration curve of mouse CUB4 antibodies the optimal dilution factor of the HEK293 supernatant in relation to the streptavidin binding capacity of the microtiter plate was identified. For the standard coating, SBP-CDCP1-ECD containing HEK293 supernatant was diluted (between 1:15 and 1:40) and incubated overnight at 2-8° C. (25 μl per well). Intensive washing of the microtiter plate is necessary to remove remaining unbound SBP-CDCP1-ECD.
Humanized CUB4 antibodies and/or reference antibody (chimeric (chHC4) CUB4 antibody comprising human constant region and mouse VH and VL of SEQ ID NO:1 and 2) were tested either undiluted or using a 12-step-dilution. 12.5 μl per well of each sample was incubated for 90 min at room temperature. After intensive washing using PBS-T (0.1% Tween 20 in PBS) 25 μl of either goat anti-human IgG antibodies coupled with HRP (Jackson ImmunoResearch, Code No: 109-036-098, dilution 1:10000) for human antibodies were added and incubated for 1 hour. After intensive washing the binding of the antibodies was detected with ABTS tablets (Roche Diagnostics GmbH, Cat. No.: 1112422). Absorbance at 405 nm/492 nm was measured using a standard photometer.

| relative binding ratio | binding result | Binder |
| --- | --- | --- |
| 0.8 | – | hHC4-a / hLC4-M (antibody, V domains shown) VH: EVQLVESGGGLVKPGGSLRLSCAASGFTFNSYGMSWVRQAPGKGLEWVSTISSGGSYTYYPDSVKGRFTISRDNAKNSLYLQMNSLRAEDTAVYYCARHPDYDGVWFAYWGQGTLVTVSS VL: EIVLTQSPATLSLSPGERATMSCGASSSVFYLHWYQQKPGLAPRLWIYDTSKLASGIPDRFSGSGSGTDFTLTISRLEPEDFAVYYCQQWNSNPPTFGGGTKVEIK |
| – | no binding | hHC4-a / hLC4-I (antibody, V domains shown) VH: EVQLVESGGGLVKPGGSLRLSCAASGFTFNSYGMSWVRQAPGKGLEWVSTISSGGSYTYYPDSVKGRFTISRDNAKNSLYLQMNSLRAEDTAVYYCARHPDYDGVWFAYWGQGTLVTVSS VL: EIVMTQSPATLSLSPGERATLSCRASSSVFYLSWYQQKPGQAPRLWIYDTSKLASGIPARFSGSGSGTDFTLTISSLQPEDFAVYYCQQWNSNPPTFGGGTKVEIK |
| 0.38 | – | hHC4-a / hLC4-a (antibody, V domains shown) VH: EVQLVESGGGLVKPGGSLRLSCAASGFTFNSYGMSWVRQAPGKGLEWVSTISSGGSYTYYPDSVKGRFTISRDNAKNSLYLQMNSLRAEDTAVYYCARHPDYDGVWFAYWGQGTLVTVSS VL: EIVLTQSPATLSLSPGERATLSCSVSSSVFYVHWYQQKPGQAPRLLIYDTSKLASGIPARFSGSGSGTDFTLTISSLEPEDFAVYYCQQWNSNPPTFGGGTKVEIK |
| – | no binding | hHC4-K / hLC4-a (antibody, V domains shown) VH: EVQLVESGGGLVKPGGSLRLSCAASGFTFNSYGMSWVRQAPGKGLEWVSSISSGGSYIYYADSVKGRFTISRDNAKNSLYLQMNSLRAEDTAVYYCARHPDYDGVWFAYWGQGTLVTVSS VL: EIVLTQSPATLSLSPGERATLSCSVSSSVFYVHWYQQKPGQAPRLLIYDTSKLASGIPARFSGSGSGTDFTLTISSLEPEDFAVYYCQQWNSNPPTFGGGTKVEIK |
| 0.35 | – | hHC4-a / hLC4-c (antibody, V domains shown) VH: EVQLVESGGGLVKPGGSLRLSCAASGFTFNSYGMSWVRQAPGKGLEWVSTISSGGSYTYYPDSVKGRFTISRDNAKNSLYLQMNSLRAEDTAVYYCARHPDYDGVWFAYWGQGTLVTVSS VL: EIVMTQSPATLSVSPGERATLSCSVSSSVFYVHWYQQKPGQAPRLLIYDTSKLASGIPARFSGSGSGTEFTLTISSLQSEDFAVYYCQQWNSNPPTFGGGTKVEIK |
| – | no binding | hHC4-K / hLC4-b (antibody, V domains shown) VH: EVQLVESGGGLVKPGGSLRLSCAASGFTFNSYGMSWVRQAPGKGLEWVSSISSGGSYIYYADSVKGRFTISRDNAKNSLYLQMNSLRAEDTAVYYCARHPDYDGVWFAYWGQGTLVTVSS VL: EIVLTQSPATLSLSPGERATLSCSVSSSVFYVHWYQQKPGQAPRLLIYDTSKLASGIPARFSGSGSGTDYTLTISSLEPEDFAVYYCQQWNSNPPTFGGGTKVEIK |
| 0.36 | – | hHC4-a / hLC4-b (antibody, V domains shown) VH: EVQLVESGGGLVKPGGSLRLSCAASGFTFNSYGMSWVRQAPGKGLEWVSTISSGGSYTYYPDSVKGRFTISRDNAKNSLYLQMNSLRAEDTAVYYCARHPDYDGVWFAYWGQGTLVTVSS VL: EIVLTQSPATLSLSPGERATLSCSVSSSVFYVHWYQQKPGQAPRLLIYDTSKLASGIPARFSGSGSGTDYTLTISSLEPEDFAVYYCQQWNSNPPTFGGGTKVEIK |
| – | no binding | hHC4-K / hLC4-I (antibody, V domains shown) VH: EVQLVESGGGLVKPGGSLRLSCAASGFTFNSYGMSWVRQAPGKGLEWVSSISSGGSYIYYADSVKGRFTISRDNAKNSLYLQMNSLRAEDTAVYYCARHPDYDGVWFAYWGQGTLVTVSS VL: EIVMTQSPATLSLSPGERATLSCRASSSVFYLSWYQQKPGQAPRLWIYDTSKLASGIPARFSGSGSGTDFTLTISSLQPEDFAVYYCQQWNSNPPTFGGGTKVEIK |
| – | no binding | hHC4-K / hLC4-c (antibody, V domains shown) VH: EVQLVESGGGLVKPGGSLRLSCAASGFTFNSYGMSWVRQAPGKGLEWVSSISSGGSYIYYADSVKGRFTISRDNAKNSLYLQMNSLRAEDTAVYYCARHPDYDGVWFAYWGQGTLVTVSS VL: EIVMTQSPATLSVSPGERATLSCSVSSSVFYVHWYQQKPGQAPRLLIYDTSKLASGIPARFSGSGSGTEFTLTISSLQSEDFAVYYCQQWNSNPPTFGGGTKVEIK |

More lines, now with the values behind:

| Binder | relative binding ratio | binding result |
| --- | --- | --- |
| hHC4-K2 / hLC4-a (antibody, V domains shown) VH: EVQLVESGGGLVKPGGSLRLSCAASGFTFNSYGMSWVRQAPGKGLEWVSSISSGGSYTYYADSVKGRFTISRDNAKNSLYLQMNSLRAEDTAVYYCARHPDYDGVWFAYWGQGTLVTVSS VL: EIVLTQSPATLSLSPGERATLSCSVSSSVFYVHWYQQKPGQAPRLLIYDTSKLASGIPARFSGSGSGTDFTLTISSLEPEDFAVYYCQQWNSNPPTFGGGTKVEIK | 0.1 | – |
| hHC4-a / hLC4-L (antibody, V domains shown) VH: EVQLVESGGGLVKPGGSLRLSCAASGFTFNSYGMSWVRQAPGKGLEWVSTISSGGSYTYYPDSVKGRFTISRDNAKNSLYLQMNSLRAEDTAVYYCARHPDYDGVWFAYWGQGTLVTVSS VL: EIVLTQSPATLSLSPGERATMSCRASSSVFYLHWYQQKPGQAPRLWIYDTSKLASGIPARFSGSGSGTDFTLTISSLEPEDFAVYYCQQWNSNPPTFGGGTKVEIK | 0.55 | – |
| hHC4-K2 / hLC4-b (antibody, V domains shown) VH: EVQLVESGGGLVKPGGSLRLSCAASGFTFNSYGMSWVRQAPGKGLEWVSSISSGGSYTYYADSVKGRFTISRDNAKNSLYLQMNSLRAEDTAVYYCARHPDYDGVWFAYWGQGTLVTVSS VL: EIVLTQSPATLSLSPGERATLSCSVSSSVFYVHWYQQKPGQAPRLLIYDTSKLASGIPARFSGSGSGTDYTLTISSLEPEDFAVYYCQQWNSNPPTFGGGTKVEIK | 0.12 | – |
| hHC4-a / hLC4-L2 (antibody, V domains shown) VH: EVQLVESGGGLVKPGGSLRLSCAASGFTFNSYGMSWVRQAPGKGLEWVSTISSGGSYTYYPDSVKGRFTISRDNAKNSLYLQMNSLRAEDTAVYYCARHPDYDGVWFAYWGQGTLVTVSS VL: EIVLTQSPATLSLSPGERATMSCSVSSSVFYLHWYQQKPGQAPRLWIYDTSKLASGIPARFSGSGSGTDFTLTISSLEPEDFAVYYCQQWNSNPPTFGGGTKVEIK | 0.58 | – |
| hHC4-K / hLC4-L (antibody, V domains shown) VH: EVQLVESGGGLVKPGGSLRLSCAASGFTFNSYGMSWVRQAPGKGLEWVSSISSGGSYIYYADSVKGRFTISRDNAKNSLYLQMNSLRAEDTAVYYCARHPDYDGVWFAYWGQGTLVTVSS VL: EIVLTQSPATLSLSPGERATMSCRASSSVFYLHWYQQKPGQAPRLWIYDTSKLASGIPARFSGSGSGTDFTLTISSLEPEDFAVYYCQQWNSNPPTFGGGTKVEIK | 0.02 | – |
| hHC4-K / hLC4-M (antibody, V domains shown) VH: EVQLVESGGGLVKPGGSLRLSCAASGFTFNSYGMSWVRQAPGKGLEWVSSISSGGSYIYYADSVKGRFTISRDNAKNSLYLQMNSLRAEDTAVYYCARHPDYDGVWFAYWGQGTLVTVSS VL: EIVLTQSPATLSLSPGERATMSCGASSSVFYLHWYQQKPGLAPRLWIYDTSKLASGIPDRFSGSGSGTDFTLTISRLEPEDFAVYYCQQWNSNPPTFGGGTKVEIK | 0.04 | – |
| hHC4-K / hLC4-J (antibody, V domains shown) VH: EVQLVESGGGLVKPGGSLRLSCAASGFTFNSYGMSWVRQAPGKGLEWVSSISSGGSYIYYADSVKGRFTISRDNAKNSLYLQMNSLRAEDTAVYYCARHPDYDGVWFAYWGQGTLVTVSS VL: EIVMTQSPATLSLSPGERATMSCRASSSVFYLHWYQQKPGQAPRLWIYDTSKLASGIPARFSGSGSGTDFTLTISSLQPEDFAVYYCQQWNSNPPTFGGGTKVEIK | 0.01 | – |
